Residue numbers refer to the chain shown, from its start. Values belong to the molecule of their own block, whether it stands above or below them.
Assays:
human CRTH2 = target: T1, human CRTH2 (Homo sapiens, UniProt Q9Y5Y4); assay: Binding activity against Azami-Green fusion human CRTH2-expressing CHO/DG44 cells; conditions: 2-30000 ng/mL, compared with monkey CRTH2; FIG. 21
T1 construct: expressed in transfected cells
T1 sequence (Q9Y5Y4 1-395): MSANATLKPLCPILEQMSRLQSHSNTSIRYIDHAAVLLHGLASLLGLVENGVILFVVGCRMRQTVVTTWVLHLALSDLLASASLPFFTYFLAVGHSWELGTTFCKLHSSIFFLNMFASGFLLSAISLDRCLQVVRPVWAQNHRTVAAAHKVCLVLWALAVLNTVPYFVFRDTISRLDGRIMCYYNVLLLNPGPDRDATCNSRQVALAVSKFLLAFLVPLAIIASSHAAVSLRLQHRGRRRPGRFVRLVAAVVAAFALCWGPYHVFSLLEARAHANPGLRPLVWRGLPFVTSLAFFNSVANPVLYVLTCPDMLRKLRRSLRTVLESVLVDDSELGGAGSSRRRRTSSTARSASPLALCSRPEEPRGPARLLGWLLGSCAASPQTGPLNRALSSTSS
Experimental: (§1) The Azami-Green fusion human CRTH2-expressing CHO/DG44 cells and the cynomolgus monkey CRTH2-expressing CHO/DG44 cells established in Example 24 were peeled using 0.02% EDTA solution (NACALAI TESQUE, Inc.), washed with PBS, and suspended with SM. Next, the cells were seeded in a 96-well plate such that each well had 2×10^5 cells, and humanized Lym2 antibody LV0HV1 or the anti-DNP IgG1 antibody at each of final concentrations 30000, 7500, 1875, 469, 117, 29, 7, and 2 ng/mL were added thereto to cause a reaction at 4° C. for 40 minutes.
(§2) After the cells were washed three times with SM, goat anti-Human IgG alexa 647 (Molecular Probes) diluted to a concentration of 10 μg/mL with SM was added thereto at 100 μL/well to perform a reaction at 4° C. for 40 minutes. The cells were washed with SM and resuspended with 100 μL of SM, and the fluorescent intensity was measured by flow cytometry (BD Biosciences, FACS CantoII).
(§3) The data was analyzed by FLowJo 7.65 (Tomy Digital Biology Co., Ltd.).

cynomolgus monkey CRTH2 = assay: Binding activity against Azami-Green fusion cynomolgus monkey CRTH2-expressing CHO/DG44 cells; conditions: 2-30000 ng/mL, compared with human CRTH2; FIG. 21
cynomolgus monkey CRTH2, sequence (as listed by the source): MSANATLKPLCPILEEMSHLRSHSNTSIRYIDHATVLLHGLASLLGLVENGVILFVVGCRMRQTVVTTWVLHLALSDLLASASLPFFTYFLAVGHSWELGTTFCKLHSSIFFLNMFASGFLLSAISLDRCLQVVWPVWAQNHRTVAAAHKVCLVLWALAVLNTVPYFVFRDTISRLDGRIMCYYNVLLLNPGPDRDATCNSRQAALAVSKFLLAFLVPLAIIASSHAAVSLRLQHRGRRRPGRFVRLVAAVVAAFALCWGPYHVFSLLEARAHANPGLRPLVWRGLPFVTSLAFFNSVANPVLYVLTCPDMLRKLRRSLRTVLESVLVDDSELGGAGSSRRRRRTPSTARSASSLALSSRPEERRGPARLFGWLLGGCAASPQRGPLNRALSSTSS
Experimental: as §1, §2, §3

[1] = test system: differentiation-induced Th1 cells; assay: Reactivity against differentiation-induced Th1 cells; type: binding, human; conditions: antibody 10 μg/mL, 4° C., 1 hour; FIG. 15
Experimental: Healthy person-derived frozen PBMC (Allcells, LLC.) was washed once with 20 mL of PBMC culture medium containing 50 μL of DNase I recombinant, RNase-free (Roche Diagnostics K.K.), suspended with 20 mL of PBMC culture medium containing 50 μL of DNase I recombinant, RNase-free, and allowed to stand in a 5% CO2 incubator at 37° C. for 2 hours.
Thereafter, the cells were washed twice with the MACS buffer described in Example 11 and naive CD4-positive T-cells were isolated by a negative selection method using Naive CD4^+ T Cell Isolation Kit II human (Miltenyi Biotec) according to the attached instructions. The negative selection was performed twice in order to improve purity of the naive CD4-positive T-cells.
According to the method described in J Immunol, 2002. 169(5): p. […]
After the cells were washed, 10 μg/mL of CELL LAB Mouse Anti-Rat Kappa (kappa light chain specific) FITC (Beckman Coulter Inc.) diluted with SM was added to wells to which Lym2 antibody or BM16 was added, 10 μg/mL of CELL LAB Goat Anti-Mouse IgG (γ chain specific) Fluorescein (FITC) Conjugate (Beckman Coulter Inc.) diluted with SM was added to wells to which 301108 was added at a final concentration of 10 μg/mL to cause a reaction at 4° C. for 1 hour. After the cells were washed again, the cells were suspended with SM, and the fluorescent intensity was analyzed by flow cytometry (BD Biosciences, FACS CantoII).

human eosinophils = assay: Agonist activity using shape change of human eosinophils as index (Example 20); type: cell-based; conditions: 0 to 10 μg/mL, 1 hour; FIG. 17
Experimental: In the same experimental system as in Example 19 described above, rat anti-human CRTH2 antibody Lym2 at each final concentration of 0, 0.01, 0.1, 1, and 10 μg/mL was added and a reaction was performed for 1 hour and shape change of eosinophils was analyzed.

binding activity against human CRTH2 (human CRTH2): substantially the same as each other
B1: LV0HV1: humanized Lym2 antibody, VL LV0 (SEQ ID NO: 33), VH HV1 (SEQ ID NO: 51) (antibody, V domains shown)
VH: EVQLVESGGGVVQPGRSLRLSCAASGFTFSNYYMAWVRQAPGKGLEWVATISYDGSSTYYRDSVKGRFTISRDNAKNSLYLQMNSLRAEDTATYYCARHRGYYYSGAGYFDYWGQGTMVTVSS
VL: DIVMTQTPLSLPVTPGESASISCRSSQSLEYSDGYTYLEWYLQKPGQSPQVLIYGVSNRFSGVPDRFSGSGSGTDFTLKISRVEAEDVGVYYCFQATHDPLTFGQGTKLEIK
binding activity against monkey CRTH2 (cynomolgus monkey CRTH2): substantially the same as each other

B2: Lym2 antibody: rat anti-human CRTH2 monoclonal antibody from hybridoma Lym2, rat IgG2b; VH SEQ ID NO: 17, VL SEQ ID NO: 19 (antibody, listed as Rattus norvegicus, V domains shown)
VH: B1 VH with V11L, L18M, R19K, G42K, N77S, S78T, N84D, A88S, T117V
VL: DVVLTQTPVSLSVTLGDQASISCRSSQSLEYSDGYTYLEWYLQKPGQSPQVLIYGVSNRFSGVPDRFIGSGSGTDFTLKISRVEPEDLGVYYCFQATHDPLTFGSGTKLEIK
reactivity against the differentiation-induced Th1 [1]: did not exhibit reactivity
shape change of eosinophils caused by antibody (agonist activity) (human eosinophils): doesn't cause the shape change

From patent US10100120B2, “Antibody which specifically binds to human CRTH2” (KYOWA HAKKO KIRIN CO., LTD, priority 2015, dated 2018)
